Results on 6 molecules are retold here after publication PMC3575409, “Identification of a Novel Protein-Protein Interaction Motif Mediating Interaction of GPCR-Associated Sorting Proteins with G Protein-Coupled Receptors” (PLoS ONE, 2013).

The target of experiment [1] is GST-fused C-tail of the β1 adrenergic receptor (residues 373–477). The experiment is described as follows: pull-down; GST-fused receptor C-tails immobilized on glutathione-Sepharose beads, incubated with [35S]-labelled in vitro translated GASPs 1 h at 4°C; 20 mM Tris-HCl pH 7.4, 150 mM NaCl, 1 mM EDTA, 1 mM DTT, 10% glycerol, 1% Triton X-100; Phosphor-imager quantification.

In experiment [2] the target is GST-fused C-tail of the muscarinic M1 acetylcholine receptor (residues 414–460). Described as above.
Experiment [3] deals with GST-fused C-tail of the δ-opioid receptor (residues 314–372). The description is as above.
The target of experiment [4] is all three receptor C-tails (ADRB1, M1 and CALCR). The experiment is described as above.
Experiment [5] concerns the target GST-fused C-tail of the β1 adrenergic receptor (residues 373–477). The experiment is described as follows: pull-down; data not shown; GST-ADRB1 C-tail with GASP-1 fragment 924–1395.
Experiment [6] addresses GST-fused C-tail of the insulin growth factor I receptor (residues 1268–1367). Nature of the experiment: pull-down; GST-fused receptor C-tails immobilized on glutathione-Sepharose beads, incubated with [35S]-labelled in vitro translated GASPs 1 h at 4°C; 20 mM Tris-HCl pH 7.4, 150 mM NaCl, 1 mM EDTA, 1 mM DTT, 10% glycerol, 1% Triton X-100; Phosphor-imager quantification.
Experiment [7] addresses GST-fused C-tail of the α isoform of the thromboxane A2 receptor (residues 304–343). The experiment is described as above.
Experiment [8] addresses T1, GST-fused C-tail of the calcitonin receptor (residues 407–490).
T1 sequence (P30988 whole entry, species assumed, looked up): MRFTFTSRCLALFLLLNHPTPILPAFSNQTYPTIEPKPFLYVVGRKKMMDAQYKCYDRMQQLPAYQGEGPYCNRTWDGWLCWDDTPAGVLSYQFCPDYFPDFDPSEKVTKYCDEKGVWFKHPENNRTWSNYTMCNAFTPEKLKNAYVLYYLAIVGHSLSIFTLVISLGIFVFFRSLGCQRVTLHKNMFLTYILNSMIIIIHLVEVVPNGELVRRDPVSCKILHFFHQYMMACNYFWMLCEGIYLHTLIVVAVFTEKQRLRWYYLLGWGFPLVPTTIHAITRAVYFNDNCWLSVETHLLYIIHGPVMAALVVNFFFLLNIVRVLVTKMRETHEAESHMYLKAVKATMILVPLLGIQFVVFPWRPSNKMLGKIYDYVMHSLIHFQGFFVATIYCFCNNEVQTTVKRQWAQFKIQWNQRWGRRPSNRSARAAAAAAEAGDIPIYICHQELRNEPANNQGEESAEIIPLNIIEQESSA
The description is as above.

For experiment [9], the target named is GST-fused C-tail of the type III transforming growth factor β receptor (residues 805–849). The experiment is described as above.
In a further experiment the target is free GST. The experiment is described as above.
Experiment [10] addresses GST-fused C-tail of the histamine 2 receptor (residues 284–349). The description is as above.
For experiment [11], the target named is the four receptor C-tails (ADRB1, M1, CALCR and TXA2). The experiment is described as follows: pull-down; competition: synthetic peptide (1 to 250 µM, or 150 µM) against [35S]-labelled GASPs for GST-fused C-tails; the peptide and the C-tail.
For experiment [12], the target named is GST-fused C-tail of the β1 adrenergic receptor (residues 373–477). The experiment is described as above.

Chain of GST-fused C-tail of the histamine 2 receptor (residues 284–349) (P25021 284-349): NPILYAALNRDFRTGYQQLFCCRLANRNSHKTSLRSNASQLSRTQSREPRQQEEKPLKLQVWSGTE
Chain of GST-fused C-tail of the type III transforming growth factor β receptor (residues 805–849) (Q03167 805-849): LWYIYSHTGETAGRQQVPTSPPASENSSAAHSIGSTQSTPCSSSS
Chain of GST-fused C-tail of the insulin growth factor I receptor (residues 1268–1367) (P08069 1268-1367): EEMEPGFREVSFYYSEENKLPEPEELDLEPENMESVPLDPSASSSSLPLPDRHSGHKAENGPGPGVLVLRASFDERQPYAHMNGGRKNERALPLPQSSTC

B1: GASP-1 truncated mutant 380–1073 (central domain), in vitro translated (domain or fragment)
chain: MTKEEAKTKARARAKQEARSEEEALIGTWFWATDESSMADEASIESSLQVEDESIIGSWFWTEEEASMGTGASSKSRPRTDGERIGDSLFGAREKTSMKTGAEATSESILAADDEQVIIGSWFWAGEEVNQEAEEETIFGSWFWVIDAASVESGVGVSCESRTRSEEEEVIGPWFWSGEQVDIEAGIGEEARPGAEEETIFGSWFWAENQTYMDCRAETSCDTMQGAEEEEPIIGSWFWTRVEACVEGDVNSKSSLEDKEEAMIPCFGAKEEVSMKHGTGVRCRFMAGAEETNNKSCFWAEKEPCMYPAGGGSWKSRPEEEEDIVNSWFWSRKYTKPEAIIGSWLWATEESNIDGTGEKAKLLTEEETIINSWFWKEDEAISEATDREESRPEAEEGDIIGSWFWAGEEDRLEPAAETREEDRLAAEKEGIVGSWFGAREETIRREAGSCSKSSPKAEEEEVIIGSWFWEEEASPEAVAGVGFESKPGTEEEEITVGSWFWPEEEASIQAGSQAVEEMESETEEETIFGSWFWDGKEVSEEAGPCCVSKPEDDEEMIVESWFWSRDKAIKETGTVATCESKPENEEGAIVGSWFEAEDEVDNRTDNGSNCGSRTLADEDEAIVGSWFWAGDEAHFESNPSPVFRAICRSTCSVEQEPDPSRRPQSWEEVTVQFKPGPWGRVGFPSISPFRFPKE
modifications: [35S]-methionine labelled
Turning to B1, the percent of the full-length GASP-1 interaction (% of the full-length GASP-1 interaction) in [1] was 70; in experiment [2], 70; in [3] it was 30.

B2: GASP-2 truncated mutant 377–838 (domain or fragment)
chain: QEPRFEEEVIIGSWFWAEKEASLEGGASAICESEPGTEEGAIGGSAYWAEEKSSLGAVAREEAKPESEEEAIFGSWFWDRDEACFDLNPCPVYKVSDRFRDAAEELNASSRPQTWDEVTVEFKPGLFHGVGFRSTSPFGIPEEASEMLEAKPKNLELSPEGEEQESLLQPDQPSPEFTFQYDPSYRSVREIREHLRARESAESESWSCSCIQCELKIGSEEFEEFLLLMDKIRDPFIHEISKIAMGMRSASQFTRDFIRDSGVVSLIETLLNYPSSRVRTSFLENMIHMAPPYPNLNMIETFICQVCEETLAHSVDSLEQLTGIRMLRHLTMTIDYHTLIANYMSGFLSLLTTANARTKFHVLKMLLNLSENPAVAKKLFSAKALSIFVGLFNIEETNDNIQIVIKMFQNISNIIKSGKMSLIDDDFSLEPLISAFREFEELAKQLQAQIDNQNDPEVGQQS
modifications: [35S]-methionine labelled
For B2, the percent of the full-length GASP-2 interaction (% of the full-length GASP-2 interaction) in experiment [4] is 30 to 60.

B3: GASP-1 fragment corresponding to amino acids 924 to 1395 (domain or fragment)
chain: CCVSKPEDDEEMIVESWFWSRDKAIKETGTVATCESKPENEEGAIVGSWFEAEDEVDNRTDNGSNCGSRTLADEDEAIVGSWFWAGDEAHFESNPSPVFRAICRSTCSVEQEPDPSRRPQSWEEVTVQFKPGPWGRVGFPSISPFRFPKEAASLFCEMFGGKPRNMVLSPEGEDQESLLQPDQPSPEFPFQYDPSYRSVQEIREHLRAKESTEPESSSCNCIQCELKIGSEEFEELLLLMEKIRDPFIHEISKIAMGMRSASQFTRDFIRDSGVVSLIETLLNYPSSRVRTSFLENMIRMAPPYPNLNIIQTYICKVCEETLAYSVDSPEQLSGIRMIRHLTTTTDYHTLVANYMSGFLSLLATGNAKTRFHVLKMLLNLSENLFMTKELLSAEAVSEFIGLFNREETNDNIQIVLAIFENIGNNIKKETVFSDDDFNIEPLISAFHKVEKFAKELQGKTDNQNDPEGDQEN
modifications: [35S]-methionine labelled
For the molecule B3, the percent of input retained (% of the input) in experiment [5] worked out at 5.

B4: GASP-6 (natural protein)
chain: MGYARKVGWVTAGLVIGAGACYCIYRLTRGRKQNKEKMAEGGSGDVDDAGDCSGARYNDWSDDDDDSNESKSIVWYPPWARIGTEAGTRARARARARATRARRAVQKRASPNSDDTVLSPQELQKVLCLVEMSEKPYILEAALIALGNNAAYAFNRDIIRDLGGLPIVAKILNTRDPIVKEKALIVLNNLSVNAENQRRLKVYMNQVCDDTITSRLNSSVQLAGLRLLTNMTVTNEYQHMLANSISDFFRLFSAGNEETKLQVLKLLLNLAENPAMTRELLRAQVPSSLGSLFNKKENKEVILKLLVIFENINDNFKWEENEPTQNQFGEGSLFFFLKEFQVCADKVLGIESHHDFLVKVKVGKFMAKLAEHMFPKSQE
modifications: [35S]-methionine labelled
With B4, the percent of GASP input retained (% of GASP input) in experiment [1] was 2; in [6], less than 1; in experiment [2], 2; in [7], 2; in experiment [3] it was 2; in experiment [8], 2. The percent of GASP input retained (% of GASP input) is less than 1 in [9], less than 1 in the experiment with free GST and 2 in [10].
Take RVKQEPRFEEEVIIGSWFWAEKEA [GASP peptide]: the percent of GASP-1, -2 and -7 retained with 150 µM GASP peptide, of the control without peptide in [11] is 6 to 35 % of control. For the same molecule, in experiment [12], the percent inhibition of GASP-2 binding at 100 µM peptide is 65% and the percent inhibition of GASP-2 binding at 250 µM peptide is 76%.

B5: GASP-1 truncated mutant 1025–1395 (conserved C-terminal domain) (domain or fragment)
chain: ICRSTCSVEQEPDPSRRPQSWEEVTVQFKPGPWGRVGFPSISPFRFPKEAASLFCEMFGGKPRNMVLSPEGEDQESLLQPDQPSPEFPFQYDPSYRSVQEIREHLRAKESTEPESSSCNCIQCELKIGSEEFEELLLLMEKIRDPFIHEISKIAMGMRSASQFTRDFIRDSGVVSLIETLLNYPSSRVRTSFLENMIRMAPPYPNLNIIQTYICKVCEETLAYSVDSPEQLSGIRMIRHLTTTTDYHTLVANYMSGFLSLLATGNAKTRFHVLKMLLNLSENLFMTKELLSAEAVSEFIGLFNREETNDNIQIVLAIFENIGNNIKKETVFSDDDFNIEPLISAFHKVEKFAKELQGKTDNQNDPEGDQEN
modifications: [35S]-methionine labelled
B5: the percent of the full-length GASP-1 interaction (% of the full-length GASP-1 interaction) in experiment [3] turned out to be 25.
